Results: PMC9121386 (Journal of the American Chemical Society, 2022)

Assays:
Assay in all cases: cross-linking
[1] = biological target: uL2 (60S ribosomal subunit protein) (human (endogenous in H1299), UniProt P62917 1-257)
[2] = biological target: eS25 (40S ribosomal subunit protein) (human (endogenous in H1299), UniProt P62851 1-125)
[3] = biological target: uL4 (60S ribosomal subunit protein) (human (endogenous in H1299), UniProt P36578 1-427)
[4] = biological target: uL16 (60S ribosomal subunit protein) (human (endogenous in H1299), UniProt P27635 1-214)

binding result [1]: binds | binding result [2]: binds | binding result [3]: binds | binding result [4]: binds
B1: fragile histidine triad (Fhit), wild type (enzyme)
chain: not shown
